T1: EsCas13d, nuclease-dead (Eubacterium siraeum, UniProt B0MS50, R295A;H300A;R849A;H854A)
T1 sequence: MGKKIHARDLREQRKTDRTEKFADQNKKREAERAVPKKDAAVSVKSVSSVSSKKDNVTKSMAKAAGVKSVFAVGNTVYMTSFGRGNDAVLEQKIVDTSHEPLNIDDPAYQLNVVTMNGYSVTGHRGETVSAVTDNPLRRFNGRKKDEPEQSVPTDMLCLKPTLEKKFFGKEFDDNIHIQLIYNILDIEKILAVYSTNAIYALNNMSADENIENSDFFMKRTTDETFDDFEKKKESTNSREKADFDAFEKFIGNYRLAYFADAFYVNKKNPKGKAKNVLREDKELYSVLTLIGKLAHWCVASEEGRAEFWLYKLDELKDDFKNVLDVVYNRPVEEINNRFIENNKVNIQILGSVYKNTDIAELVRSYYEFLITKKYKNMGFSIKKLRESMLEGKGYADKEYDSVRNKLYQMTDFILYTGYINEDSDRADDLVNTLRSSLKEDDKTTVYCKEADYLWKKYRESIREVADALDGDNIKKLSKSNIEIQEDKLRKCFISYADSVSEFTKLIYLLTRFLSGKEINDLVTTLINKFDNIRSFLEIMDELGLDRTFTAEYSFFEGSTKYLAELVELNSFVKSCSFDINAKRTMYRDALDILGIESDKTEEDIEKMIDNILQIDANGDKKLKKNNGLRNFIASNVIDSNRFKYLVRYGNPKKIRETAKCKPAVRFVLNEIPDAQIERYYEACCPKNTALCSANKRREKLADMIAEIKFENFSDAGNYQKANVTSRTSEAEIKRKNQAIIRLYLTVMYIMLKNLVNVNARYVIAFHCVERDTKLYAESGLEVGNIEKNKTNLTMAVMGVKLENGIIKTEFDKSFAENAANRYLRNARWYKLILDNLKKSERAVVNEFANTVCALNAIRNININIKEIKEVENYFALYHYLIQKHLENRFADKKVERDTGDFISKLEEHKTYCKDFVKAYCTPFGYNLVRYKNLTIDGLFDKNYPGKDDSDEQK

B1: target 1 insC 3' of 16,insG 3' of 10 (mixed)
RNA 1: CACCCGUGCAAAAAUGCAGGGGUCUAAAACUGAGCGGAUAACCUCUCUAUGG
RNA 2: GGGAAUGGAUCCACAUCUACGAAUUCGUACCAUAGACGAGGUUGAUCCGCUCACCGAGAUCGGAAGAGCACACGU
B2: target 1 U8C,U11C (mixed)
RNA 1: CACCCGUGCAAAAAUGCAGGGGUCUAAAACUGAGCGGAUAACCUCUCUAUGG
RNA 2: GGGAAUGGAUCCACAUCUACGAAUUCGUACCAUAGAGAGGCUACCCGCUCACCGAGAUCGGAAGAGCACACGU
B3: target 1 A14U,G15C (mixed)
RNA 1: CACCCGUGCAAAAAUGCAGGGGUCUAAAACUGAGCGGAUAACCUCUCUAUGG
RNA 2: GGGAAUGGAUCCACAUCUACGAAUUCGUACCAUAGACUGGUUAUCCGCUCACCGAGAUCGGAAGAGCACACGU
B4: target 1 insC 3' of 11,insC 3' of 8 (mixed)
RNA 1: CACCCGUGCAAAAAUGCAGGGGUCUAAAACUGAGCGGAUAACCUCUCUAUGG
RNA 2: GGGAAUGGAUCCACAUCUACGAAUUCGUACCAUAGAGAGGUCUAUCCCGCUCACCGAGAUCGGAAGAGCACACGU
B5: target 1 U8C,A9G (mixed)
RNA 1: CACCCGUGCAAAAAUGCAGGGGUCUAAAACUGAGCGGAUAACCUCUCUAUGG
RNA 2: GGGAAUGGAUCCACAUCUACGAAUUCGUACCAUAGAGAGGUUGCCCGCUCACCGAGAUCGGAAGAGCACACGU
B6: target 1 insU 3' of 15,insG 3' of 1 (mixed)
RNA 1: CACCCGUGCAAAAAUGCAGGGGUCUAAAACUGAGCGGAUAACCUCUCUAUGG
RNA 2: GGGAAUGGAUCCACAUCUACGAAUUCGUACCAUAGAGUAGGUUAUCCGCUCAGCCGAGAUCGGAAGAGCACACGU
B7: target 1 insA 3' of 13,insU 3' of 6 (mixed)
RNA 1: CACCCGUGCAAAAAUGCAGGGGUCUAAAACUGAGCGGAUAACCUCUCUAUGG
RNA 2: GGGAAUGGAUCCACAUCUACGAAUUCGUACCAUAGAGAGAGUUAUCCUGCUCACCGAGAUCGGAAGAGCACACGU
B8: target 1 insC 3' of 11,insG 3' of 6 (mixed)
RNA 1: CACCCGUGCAAAAAUGCAGGGGUCUAAAACUGAGCGGAUAACCUCUCUAUGG
RNA 2: GGGAAUGGAUCCACAUCUACGAAUUCGUACCAUAGAGAGGUCUAUCCGGCUCACCGAGAUCGGAAGAGCACACGU
B9: target 1 insG 3' of 10,insG 3' of 2 (mixed)
RNA 1: CACCCGUGCAAAAAUGCAGGGGUCUAAAACUGAGCGGAUAACCUCUCUAUGG
RNA 2: GGGAAUGGAUCCACAUCUACGAAUUCGUACCAUAGAGAGGUUGAUCCGCUCGACCGAGAUCGGAAGAGCACACGU
B10: target 1 insC 3' of 13,insU 3' of 7 (mixed)
RNA 1: CACCCGUGCAAAAAUGCAGGGGUCUAAAACUGAGCGGAUAACCUCUCUAUGG
RNA 2: GGGAAUGGAUCCACAUCUACGAAUUCGUACCAUAGAGAGCGUUAUCUCGCUCACCGAGAUCGGAAGAGCACACGU
B11: target 1 insU 3' of 15,insC 3' of 1 (mixed)
RNA 1: CACCCGUGCAAAAAUGCAGGGGUCUAAAACUGAGCGGAUAACCUCUCUAUGG
RNA 2: GGGAAUGGAUCCACAUCUACGAAUUCGUACCAUAGAGUAGGUUAUCCGCUCACCCGAGAUCGGAAGAGCACACGU
B12: target 1 U8C,A16G (mixed)
RNA 1: CACCCGUGCAAAAAUGCAGGGGUCUAAAACUGAGCGGAUAACCUCUCUAUGG
RNA 2: GGGAAUGGAUCCACAUCUACGAAUUCGUACCAUAGGGAGGUUACCCGCUCACCGAGAUCGGAAGAGCACACGU
B13: target 1 insU 3' of 14,insC 3' of 13 (mixed)
RNA 1: CACCCGUGCAAAAAUGCAGGGGUCUAAAACUGAGCGGAUAACCUCUCUAUGG
RNA 2: GGGAAUGGAUCCACAUCUACGAAUUCGUACCAUAGAGAUGCGUUAUCCGCUCACCGAGAUCGGAAGAGCACACGU
B14: target 1 U3C,G13A (mixed)
RNA 1: CACCCGUGCAAAAAUGCAGGGGUCUAAAACUGAGCGGAUAACCUCUCUAUGG
RNA 2: GGGAAUGGAUCCACAUCUACGAAUUCGUACCAUAGAGAAGUUAUCCGCCCACCGAGAUCGGAAGAGCACACGU
B15: target 1 insU 3' of 20,insA 3' of 3 (mixed)
RNA 1: CACCCGUGCAAAAAUGCAGGGGUCUAAAACUGAGCGGAUAACCUCUCUAUGG
RNA 2: GGGAAUGGAUCCACAUCUACGAAUUCGUACCAUUAGAGAGGUUAUCCGCUACACCGAGAUCGGAAGAGCACACGU
B16: target 1 U3C,U11A (mixed)
RNA 1: CACCCGUGCAAAAAUGCAGGGGUCUAAAACUGAGCGGAUAACCUCUCUAUGG
RNA 2: GGGAAUGGAUCCACAUCUACGAAUUCGUACCAUAGAGAGGAUAUCCGCCCACCGAGAUCGGAAGAGCACACGU
B17: target 1 insU 3' of 13,insU 3' of 5 (mixed)
RNA 1: CACCCGUGCAAAAAUGCAGGGGUCUAAAACUGAGCGGAUAACCUCUCUAUGG
RNA 2: GGGAAUGGAUCCACAUCUACGAAUUCGUACCAUAGAGAGUGUUAUCCGUCUCACCGAGAUCGGAAGAGCACACGU
B18: target 1 insU 3' of 15,insU 3' of 1 (mixed)
RNA 1: CACCCGUGCAAAAAUGCAGGGGUCUAAAACUGAGCGGAUAACCUCUCUAUGG
RNA 2: GGGAAUGGAUCCACAUCUACGAAUUCGUACCAUAGAGUAGGUUAUCCGCUCAUCCGAGAUCGGAAGAGCACACGU
B19: target 1 U11G,G13A (mixed)
RNA 1: CACCCGUGCAAAAAUGCAGGGGUCUAAAACUGAGCGGAUAACCUCUCUAUGG
RNA 2: GGGAAUGGAUCCACAUCUACGAAUUCGUACCAUAGAGAAGGUAUCCGCUCACCGAGAUCGGAAGAGCACACGU
B20: target 1 insA 3' of 6,insU 3' of 2 (mixed)
RNA 1: CACCCGUGCAAAAAUGCAGGGGUCUAAAACUGAGCGGAUAACCUCUCUAUGG
RNA 2: GGGAAUGGAUCCACAUCUACGAAUUCGUACCAUAGAGAGGUUAUCCAGCUCUACCGAGAUCGGAAGAGCACACGU
B21: target 1 insG 3' of 6,insU 3' of 4 (mixed)
RNA 1: CACCCGUGCAAAAAUGCAGGGGUCUAAAACUGAGCGGAUAACCUCUCUAUGG
RNA 2: GGGAAUGGAUCCACAUCUACGAAUUCGUACCAUAGAGAGGUUAUCCGGCUUCACCGAGAUCGGAAGAGCACACGU
B22: target 1 insU 3' of 15,insA 3' of 2 (mixed)
RNA 1: CACCCGUGCAAAAAUGCAGGGGUCUAAAACUGAGCGGAUAACCUCUCUAUGG
RNA 2: GGGAAUGGAUCCACAUCUACGAAUUCGUACCAUAGAGUAGGUUAUCCGCUCAACCGAGAUCGGAAGAGCACACGU
B23: target 1 U3G,C6G (mixed)
RNA 1: CACCCGUGCAAAAAUGCAGGGGUCUAAAACUGAGCGGAUAACCUCUCUAUGG
RNA 2: GGGAAUGGAUCCACAUCUACGAAUUCGUACCAUAGAGAGGUUAUCGGCGCACCGAGAUCGGAAGAGCACACGU

For this data set, the target named is T1, EsCas13d, nuclease-dead. Put plainly: crRNA (strand 1, pre-loaded); Mg2+; 40 mM Tris-HCl pH 7.5, 150 mM NaCl, 6 mM MgCl2, 1 mM DTT, 0.1% Tween-20, 0.2 mg/ml BSA; 25 C; 10 min per concentration, then washed. The settings on record: tags: His6-TwinStrep-SUMO cleaved; N-terminal SNAP kept (SNAP-Surface 488); label: 3' end held by stalled T7 RNA polymerase.
As to B1, the Kd turned out to be 79 ± 15 nM.
Then B2, with 12.2 ± 0.6 nM; and B3, with approximately 80 nM.
The value for B4 was approximately 70 nM; that for B5 was 13.4 ± 0.6 nM.
The value for B6 was 11.6 ± 0.7 nM; that for B7 was 4.15 ± 0.3 nM; that for B8 was 44 ± 8 nM.
Consider B9, for which binding was characterised by a dissociation constant (Kd) of 34.6 ± 3.1 nM.
Consider B10, for which the affinity, expressed as Kd, was 25.7 ± 1.8 nM.
Turning to B11, the affinity, expressed as Kd, was 8.8 ± 0.5 nM.
The value for B12 was 54 ± 5 nM.
As to B13, the Kd is 29 ± 5 nM.
Then B14, with 37 ± 8 nM.
B15 had a Kd of 11.3 ± 1.1 nM.
Take B16: the Kd is approximately 58 nM.
Then B17, with 22.4 ± 3.3 nM; and B18, with 11.2 ± 0.8 nM; and B19, with 16.6 ± 1.6 nM.
Then B20, with 21 ± 4 nM; and B21, with 10.6 ± 0.5 nM.
The value for B22 was 10.9 ± 1.1 nM; that for B23 was 4.32 ± 0.23 nM.

The values are drawn from paper PMC10786891, “Massively parallel profiling of RNA-targeting CRISPR-Cas13d”.
